{"source": "patent US20240117018A1", "assay_in_all_cases": "cell-based or functional assay", "key": {"[1]": {"biological_target": "HIV-1 Env of pseudovirus Q461.e2 (HIV-1)"}, "[2]": {"biological_target": "HIV-1 Env of pseudovirus TRJO4551.58 (HIV-1)"}, "[3]": {"biological_target": "HIV-1 Env of pseudovirus 6240_08_TA5_4622 (HIV-1)"}, "[4]": {"biological_target": "HIV-1 Env of pseudovirus T250-4 (HIV-1)"}, "[5]": {"biological_target": "HIV-1 Env of pseudovirus CNE30 (HIV-1)"}, "[6]": {"biological_target": "HIV-1 Env of pseudovirus Ce704809221_1B3 (HIV-1)"}, "[7]": {"biological_target": "HIV-1 Env of pseudovirus SC422661.8 (HIV-1)"}, "[8]": {"biological_target": "HIV-1 Env of pseudovirus THRO4156.18 (HIV-1)"}, "[9]": {"biological_target": "HIV-1 Env of pseudovirus PVO.4 (HIV-1)"}, "[10]": {"biological_target": "HIV-1 Env of pseudovirus HIV-16845-2.22 (HIV-1)"}, "[11]": {"biological_target": "HIV-1 Env of pseudovirus BF1266.431a (HIV-1)"}, "[12]": {"biological_target": "HIV-1 Env of pseudovirus Ce1086_B2 (HIV-1)"}, "[13]": {"biological_target": "HIV-1 Env of pseudovirus QH0692.42 (HIV-1)"}, "[14]": {"biological_target": "HIV-1 Env of pseudovirus 6535.3 (HIV-1)"}, "[15]": {"biological_target": "HIV-1 Env of pseudovirus Q259.d2.17 (HIV-1)"}, "[16]": {"biological_target": "HIV-1 Env of pseudovirus Q23.17 (HIV-1)"}, "[17]": {"biological_target": "HIV-1 Env of pseudovirus CNE5 (HIV-1)"}, "[18]": {"biological_target": "HIV-1 Env of pseudovirus CNE21 (HIV-1)"}, "[19]": {"biological_target": "HIV-1 Env of pseudovirus HIV-001428-2.42 (HIV-1)"}, "[20]": {"biological_target": "HIV-1 Env of pseudovirus 246F C1G (HIV-1)"}, "[21]": {"biological_target": "HIV-1 Env of pseudovirus CNE19 (HIV-1)"}, "[22]": {"biological_target": "HIV-1 Env of pseudovirus 249M B10 (HIV-1)"}, "[23]": {"biological_target": "HIV-1 Env of pseudovirus Du156.12 (HIV-1)"}, "[24]": {"biological_target": "HIV-1 Env of pseudovirus 1006_11_C3_1601 (HIV-1)"}, "[25]": {"biological_target": "HIV-1 Env of pseudovirus CAP45.2.00.G3 (HIV-1)"}, "[26]": {"biological_target": "HIV-1 Env of pseudovirus ZM249M.PL1 (HIV-1)"}, "[27]": {"biological_target": "HIV-1 Env of pseudovirus 1056_10_TA11_1826 (HIV-1)"}, "[28]": {"biological_target": "HIV-1 Env of pseudovirus CAP210.2.00.E8 (HIV-1)"}, "[29]": {"biological_target": "HIV-1 Env of pseudovirus Ce1172_H1 (HIV-1)"}, "[30]": {"biological_target": "HIV-1 Env of pseudovirus SC05_8C11_2344 (HIV-1)"}, "[31]": {"biological_target": "HIV-1 Env of pseudovirus Ce0682_E4 (HIV-1)"}, "[32]": {"biological_target": "HIV-1 Env of pseudovirus 7030102001E5(Rev-) (HIV-1)"}, "[33]": {"biological_target": "HIV-1 Env of pseudovirus CNE8 (HIV-1)"}, "[34]": {"biological_target": "HIV-1 Env of pseudovirus 0260.v5.c36 (HIV-1)"}, "[35]": {"biological_target": "HIV-1 Env of pseudovirus CNE17 (HIV-1)"}}, "data": [{"substance": "PGT128 (antibody)", "values": [{"measurement": "neutralization IC50", "setting": "[1]", "value": "> 50", "unit": "µg/mL"}, {"measurement": "neutralization IC80", "setting": "[1]", "value": "> 50", "unit": "µg/mL"}, {"measurement": "neutralization IC50", "setting": "[2]", "value": 0.018, "unit": "µg/mL"}, {"measurement": "neutralization IC80", "setting": "[2]", "value": 0.041, "unit": "µg/mL"}, {"measurement": "neutralization IC50", "setting": "[3]", "value": 0.019, "unit": "µg/mL"}, {"measurement": "neutralization IC80", "setting": "[3]", "value": 0.055, "unit": "µg/mL"}, {"measurement": "neutralization IC50", "setting": "[4]", "value": "< 0.001", "unit": "µg/mL"}, {"measurement": "neutralization IC80", "setting": "[4]", "value": 0.007, "unit": "µg/mL"}, {"measurement": "neutralization IC50", "setting": "[5]", "value": 2.06, "unit": "µg/mL"}, {"measurement": "neutralization IC80", "setting": "[5]", "value": 12.6, "unit": "µg/mL"}, {"measurement": "neutralization IC50", "setting": "[6]", "value": 0.026, "unit": "µg/mL"}, {"measurement": "neutralization IC80", "setting": "[6]", "value": 0.072, "unit": "µg/mL"}, {"measurement": "neutralization IC50", "setting": "[7]", "value": 1.08, "unit": "µg/mL"}, {"measurement": "neutralization IC80", "setting": "[7]", "value": 18.4, "unit": "µg/mL"}, {"measurement": "neutralization IC50", "setting": "[8]", "value": "> 50", "unit": "µg/mL"}, {"measurement": "neutralization IC80", "setting": "[8]", "value": "> 50", "unit": "µg/mL"}, {"measurement": "neutralization IC50", "setting": "[9]", "value": 0.011, "unit": "µg/mL"}, {"measurement": "neutralization IC80", "setting": "[9]", "value": 0.028, "unit": "µg/mL"}, {"measurement": "neutralization IC50", "setting": "[10]", "value": 0.181, "unit": "µg/mL"}, {"measurement": "neutralization IC80", "setting": "[10]", "value": 0.834, "unit": "µg/mL"}, {"measurement": "neutralization IC50", "setting": "[11]", "value": "> 50", "unit": "µg/mL"}, {"measurement": "neutralization IC80", "setting": "[11]", "value": "> 50", "unit": "µg/mL"}, {"measurement": "neutralization IC50", "setting": "[12]", "value": "> 50", "unit": "µg/mL"}, {"measurement": "neutralization IC80", "setting": "[12]", "value": "> 50", "unit": "µg/mL"}, {"measurement": "neutralization IC50", "setting": "[13]", "value": 0.029, "unit": "µg/mL"}, {"measurement": "neutralization IC80", "setting": "[13]", "value": 0.081, "unit": "µg/mL"}, {"measurement": "neutralization IC50", "setting": "[14]", "value": 0.004, "unit": "µg/mL"}, {"measurement": "neutralization IC80", "setting": "[14]", "value": 0.016, "unit": "µg/mL"}, {"measurement": "neutralization IC50", "setting": "[15]", "value": "> 50", "unit": "µg/mL"}, {"measurement": "neutralization IC80", "setting": "[15]", "value": "> 50", "unit": "µg/mL"}, {"measurement": "neutralization IC50", "setting": "[16]", "value": 0.009, "unit": "µg/mL"}, {"measurement": "neutralization IC80", "setting": "[16]", "value": 0.024, "unit": "µg/mL"}, {"measurement": "IC50 (Titer in TZM.bl cells)", "setting": "[17]", "value": 0.018, "unit": "µg/mL"}, {"measurement": "IC80 (Titer in TZM.bl cells)", "setting": "[17]", "value": 0.253, "unit": "µg/mL"}, {"measurement": "neutralization IC50", "setting": "[18]", "value": 0.01, "unit": "µg/mL"}, {"measurement": "neutralization IC80", "setting": "[18]", "value": 0.026, "unit": "µg/mL"}, {"measurement": "neutralization IC50", "setting": "[19]", "value": 0.026, "unit": "µg/mL"}, {"measurement": "neutralization IC80", "setting": "[19]", "value": 0.095, "unit": "µg/mL"}, {"measurement": "neutralization IC50", "setting": "[20]", "value": 0.005, "unit": "µg/mL"}, {"measurement": "neutralization IC80", "setting": "[20]", "value": 0.014, "unit": "µg/mL"}, {"measurement": "neutralization IC50", "setting": "[21]", "value": "> 50", "unit": "µg/mL"}, {"measurement": "neutralization IC80", "setting": "[21]", "value": "> 50", "unit": "µg/mL"}, {"measurement": "neutralization IC50", "setting": "[22]", "value": 7.87, "unit": "µg/mL"}, {"measurement": "neutralization IC80", "setting": "[22]", "value": "> 50", "unit": "µg/mL"}, {"measurement": "neutralization IC50", "setting": "[23]", "value": 0.017, "unit": "µg/mL"}, {"measurement": "neutralization IC80", "setting": "[23]", "value": 0.046, "unit": "µg/mL"}, {"measurement": "neutralization IC50", "setting": "[24]", "value": 0.011, "unit": "µg/mL"}, {"measurement": "neutralization IC80", "setting": "[24]", "value": 0.04, "unit": "µg/mL"}, {"measurement": "neutralization IC50", "setting": "[25]", "value": "> 50", "unit": "µg/mL"}, {"measurement": "neutralization IC80", "setting": "[25]", "value": "> 50", "unit": "µg/mL"}, {"measurement": "neutralization IC50", "setting": "[26]", "value": 39.7, "unit": "µg/mL"}, {"measurement": "neutralization IC80", "setting": "[26]", "value": "> 50", "unit": "µg/mL"}, {"measurement": "neutralization IC50", "setting": "[27]", "value": "< 0.001", "unit": "µg/mL"}, {"measurement": "neutralization IC80", "setting": "[27]", "value": 0.008, "unit": "µg/mL"}, {"measurement": "neutralization IC50", "setting": "[28]", "value": "> 50", "unit": "µg/mL"}, {"measurement": "neutralization IC80", "setting": "[28]", "value": "> 50", "unit": "µg/mL"}, {"measurement": "neutralization IC50", "setting": "[29]", "value": 0.013, "unit": "µg/mL"}, {"measurement": "neutralization IC80", "setting": "[29]", "value": 0.038, "unit": "µg/mL"}, {"measurement": "neutralization IC50", "setting": "[30]", "value": 0.017, "unit": "µg/mL"}, {"measurement": "neutralization IC80", "setting": "[30]", "value": 0.041, "unit": "µg/mL"}, {"measurement": "neutralization IC50", "setting": "[31]", "value": "> 50", "unit": "µg/mL"}, {"measurement": "neutralization IC80", "setting": "[31]", "value": "> 50", "unit": "µg/mL"}, {"measurement": "neutralization IC50", "setting": "[32]", "value": 0.007, "unit": "µg/mL"}, {"measurement": "neutralization IC80", "setting": "[32]", "value": 0.022, "unit": "µg/mL"}, {"measurement": "IC50 (Titer in TZM.bl cells)", "setting": "[33]", "value": 0.019, "unit": "µg/mL"}, {"measurement": "IC80 (Titer in TZM.bl cells)", "setting": "[33]", "value": 0.052, "unit": "µg/mL"}, {"measurement": "neutralization IC50", "setting": "[34]", "value": 0.058, "unit": "µg/mL"}, {"measurement": "neutralization IC80", "setting": "[34]", "value": 0.162, "unit": "µg/mL"}, {"measurement": "neutralization IC50", "setting": "[35]", "value": 0.432, "unit": "µg/mL"}, {"measurement": "neutralization IC80", "setting": "[35]", "value": 1.99, "unit": "µg/mL"}]}]}
